Data on one substance can be found in patent US20140335573A1.

The experiment deals with native C. thermocellum cellulosome (purified from culture media of C. thermocellum ATCC 27405) (Clostridium thermocellum) (UniProt Q06851). Nature of the experiment: cell-based or functional assay.
UniProt Q06851, sequence (Q06851 whole entry): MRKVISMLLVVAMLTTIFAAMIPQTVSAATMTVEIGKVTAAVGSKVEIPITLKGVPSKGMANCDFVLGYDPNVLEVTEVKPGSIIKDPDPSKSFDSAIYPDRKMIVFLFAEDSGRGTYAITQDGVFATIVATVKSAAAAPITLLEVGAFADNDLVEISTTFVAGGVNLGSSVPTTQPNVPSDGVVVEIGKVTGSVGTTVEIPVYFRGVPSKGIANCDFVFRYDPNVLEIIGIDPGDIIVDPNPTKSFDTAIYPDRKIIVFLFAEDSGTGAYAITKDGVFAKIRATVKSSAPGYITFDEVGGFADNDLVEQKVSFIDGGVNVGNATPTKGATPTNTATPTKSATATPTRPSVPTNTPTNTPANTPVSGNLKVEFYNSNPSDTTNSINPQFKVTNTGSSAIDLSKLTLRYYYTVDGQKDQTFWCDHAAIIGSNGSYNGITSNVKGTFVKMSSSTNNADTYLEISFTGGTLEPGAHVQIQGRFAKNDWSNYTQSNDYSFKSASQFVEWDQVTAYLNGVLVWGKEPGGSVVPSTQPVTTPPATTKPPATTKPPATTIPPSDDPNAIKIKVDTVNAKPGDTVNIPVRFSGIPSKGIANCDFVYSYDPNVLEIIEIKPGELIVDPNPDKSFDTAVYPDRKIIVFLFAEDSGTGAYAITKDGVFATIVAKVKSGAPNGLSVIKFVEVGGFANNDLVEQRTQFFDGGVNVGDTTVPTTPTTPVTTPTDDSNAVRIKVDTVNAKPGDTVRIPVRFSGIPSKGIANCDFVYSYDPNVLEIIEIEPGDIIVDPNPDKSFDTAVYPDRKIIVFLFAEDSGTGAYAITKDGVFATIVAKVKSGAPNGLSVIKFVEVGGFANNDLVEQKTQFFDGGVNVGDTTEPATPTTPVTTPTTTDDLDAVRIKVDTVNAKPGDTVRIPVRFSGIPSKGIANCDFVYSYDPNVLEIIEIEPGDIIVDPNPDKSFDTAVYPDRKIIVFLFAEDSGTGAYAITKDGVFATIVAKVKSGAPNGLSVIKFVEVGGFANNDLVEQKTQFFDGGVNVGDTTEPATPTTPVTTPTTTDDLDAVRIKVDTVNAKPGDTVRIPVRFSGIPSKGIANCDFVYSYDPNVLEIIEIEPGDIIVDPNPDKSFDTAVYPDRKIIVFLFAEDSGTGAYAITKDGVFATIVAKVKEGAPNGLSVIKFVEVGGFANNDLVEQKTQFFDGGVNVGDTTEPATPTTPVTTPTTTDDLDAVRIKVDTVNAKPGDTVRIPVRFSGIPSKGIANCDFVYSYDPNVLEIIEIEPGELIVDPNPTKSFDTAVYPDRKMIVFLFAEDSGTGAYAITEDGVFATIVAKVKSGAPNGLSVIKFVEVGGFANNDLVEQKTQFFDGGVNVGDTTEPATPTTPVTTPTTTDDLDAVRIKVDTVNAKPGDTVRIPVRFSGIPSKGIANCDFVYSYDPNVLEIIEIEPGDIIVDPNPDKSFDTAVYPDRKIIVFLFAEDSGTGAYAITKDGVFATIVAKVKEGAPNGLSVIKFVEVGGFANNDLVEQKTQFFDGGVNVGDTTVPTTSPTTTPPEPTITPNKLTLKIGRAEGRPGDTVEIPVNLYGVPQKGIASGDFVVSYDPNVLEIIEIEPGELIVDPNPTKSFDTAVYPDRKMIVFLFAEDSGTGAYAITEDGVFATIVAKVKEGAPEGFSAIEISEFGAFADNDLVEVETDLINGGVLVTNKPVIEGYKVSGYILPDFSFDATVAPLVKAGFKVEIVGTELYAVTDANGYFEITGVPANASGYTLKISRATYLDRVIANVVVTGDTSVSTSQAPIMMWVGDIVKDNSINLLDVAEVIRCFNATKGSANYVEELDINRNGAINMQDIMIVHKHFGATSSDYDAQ

For “BglA-CohII (C. thermocellum beta-glucosidase A fused to the type-II cohesin module of Orf2p) (enzyme)”, the hydrolysis of microcrystalline cellulose (soluble reducing sugars), fold over native cellulosome is 2.68 fold and the hydrolysis of pre-treated switchgrass (soluble reducing sugars), fold over native cellulosome worked out at 1.86 fold.
